Tests used:
[1] = biological target: recombinant selenocysteine-containing rat TrxR1 (rat) (UniProt O89049)
[2] = biological target: human thioredoxin reductase 1 (TrxR1) U498C mutant (human) (UniProt Q16881); assay: differential scanning fluorimetry; 10 uM hTrxR (U498C), hTrx1 0 to 100 uM, Sypro Orange 1:500, 50 mM Tris, 1 mM EDTA, pH 7.4; Tm of the first denaturation step of TrxR plotted against log [Trx] (Hill plot), EC50 converted to Kd
[3] = biological target: T1, recombinant selenocysteine-containing rat TrxR1 (rat, UniProt O89049 1-499, selenocysteine (selenocysteine-containing; low degree of incorporation presumed by the paper)); assay: enzyme inhibition kinetics (insulin reduction assay, NADPH depletion); 1.25 nM recombinant rat selenocysteine-containing TrxR, 150 uM NADPH, 160 uM insulin, 50 mM Tris-EDTA pH 7.5; Lineweaver-Burk plots, Ki from secondary plot of slopes against the concentration of the redox-inactive mutant; settings: both partners purified
T1 construct: rat cytosolic thioredoxin reductase 1, selenocysteine-containing; Used for all enzymatic assays (insulin reduction); also called recombinant selenocysteine-containing TrxR
T1 sequence (looked up): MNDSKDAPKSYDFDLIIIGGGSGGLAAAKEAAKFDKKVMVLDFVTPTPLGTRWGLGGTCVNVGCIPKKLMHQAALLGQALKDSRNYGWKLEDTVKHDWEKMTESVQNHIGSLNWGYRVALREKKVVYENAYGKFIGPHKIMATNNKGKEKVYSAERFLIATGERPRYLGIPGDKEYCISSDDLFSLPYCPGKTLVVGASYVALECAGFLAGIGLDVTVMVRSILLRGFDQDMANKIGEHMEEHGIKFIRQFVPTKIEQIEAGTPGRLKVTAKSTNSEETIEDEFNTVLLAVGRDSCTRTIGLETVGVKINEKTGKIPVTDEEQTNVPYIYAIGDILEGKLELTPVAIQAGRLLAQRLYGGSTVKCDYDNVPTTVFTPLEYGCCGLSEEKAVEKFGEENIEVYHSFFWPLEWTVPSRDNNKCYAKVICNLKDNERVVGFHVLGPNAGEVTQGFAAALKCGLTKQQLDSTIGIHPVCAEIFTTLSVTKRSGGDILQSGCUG

B1: human Trx1 K39E (natural protein)
chain: MVKQIESKTAFQEALDAAGDKLVVVDFSATWCGPCKMIEPFFHSLSEKYSNVIFLEVDVDDCQDVASECEVKCMPTFQFFKKGQKVGEFSGANKEKLEATINELV
- KM of TrxR1 for the Trx1 variant, insulin reduction-coupled assay [1]: 1.45 µM
- Kd [2]: 9.68 µM

B2: human thioredoxin 1 (Trx1), wild-type (natural protein)
chain: MVKQIESKTAFQEALDAAGDKLVVVDFSATWCGPCKMIKPFFHSLSEKYSNVIFLEVDVDDCQDVASECEVKCMPTFQFFKKGQKVGEFSGANKEKLEATINELV
- Kd [2]: 13.6 µM

B3: human Trx1 K72E (natural protein)
chain: MVKQIESKTAFQEALDAAGDKLVVVDFSATWCGPCKMIKPFFHSLSEKYSNVIFLEVDVDDCQDVASECEVECMPTFQFFKKGQKVGEFSGANKEKLEATINELV
- KM of TrxR1 for the Trx1 variant, insulin reduction-coupled assay [1]: 2.22 µM

B4: human Trx1 Q63R,K94E (natural protein)
chain: MVKQIESKTAFQEALDAAGDKLVVVDFSATWCGPCKMIKPFFHSLSEKYSNVIFLEVDVDDCRDVASECEVKCMPTFQFFKKGQKVGEFSGANEEKLEATINELV
- KM of TrxR1 for the Trx1 variant, insulin reduction-coupled assay [1]: 7.09 µM

B5: human Trx1 A17R,I53R (natural protein)
chain: MVKQIESKTAFQEALDRAGDKLVVVDFSATWCGPCKMIKPFFHSLSEKYSNVRFLEVDVDDCQDVASECEVKCMPTFQFFKKGQKVGEFSGANKEKLEATINELV
- KM of TrxR1 for the Trx1 variant, insulin reduction-coupled assay [1]: 2.73 µM

B6: human Trx1 C73H (natural protein)
chain: MVKQIESKTAFQEALDAAGDKLVVVDFSATWCGPCKMIKPFFHSLSEKYSNVIFLEVDVDDCQDVASECEVKHMPTFQFFKKGQKVGEFSGANKEKLEATINELV
- KM of TrxR1 for the Trx1 variant, insulin reduction-coupled assay [1]: 1.24 µM

B7: human Trx1 D60N (natural protein)
chain: MVKQIESKTAFQEALDAAGDKLVVVDFSATWCGPCKMIKPFFHSLSEKYSNVIFLEVDVNDCQDVASECEVKCMPTFQFFKKGQKVGEFSGANKEKLEATINELV
- KM of TrxR1 for the Trx1 variant, insulin reduction-coupled assay [1]: 3.26 µM

B8: human Trx1 S67H (natural protein)
chain: MVKQIESKTAFQEALDAAGDKLVVVDFSATWCGPCKMIKPFFHSLSEKYSNVIFLEVDVDDCQDVAHECEVKCMPTFQFFKKGQKVGEFSGANKEKLEATINELV
- KM of TrxR1 for the Trx1 variant, insulin reduction-coupled assay [1]: 1.36 µM

B9: human Trx1 K36E (natural protein)
chain: MVKQIESKTAFQEALDAAGDKLVVVDFSATWCGPCEMIKPFFHSLSEKYSNVIFLEVDVDDCQDVASECEVKCMPTFQFFKKGQKVGEFSGANKEKLEATINELV
- KM of TrxR1 for the Trx1 variant, insulin reduction-coupled assay [1]: 9.82 µM
- Kd [2]: 5.28 µM

B10: human Trx1 D58,60,61N (natural protein)
chain: MVKQIESKTAFQEALDAAGDKLVVVDFSATWCGPCKMIKPFFHSLSEKYSNVIFLEVNVNNCQDVASECEVKCMPTFQFFKKGQKVGEFSGANKEKLEATINELV
- KM of TrxR1 for the Trx1 variant, insulin reduction-coupled assay [1]: 5.83 µM

B11: human Trx1 K94E (natural protein)
chain: MVKQIESKTAFQEALDAAGDKLVVVDFSATWCGPCKMIKPFFHSLSEKYSNVIFLEVDVDDCQDVASECEVKCMPTFQFFKKGQKVGEFSGANEEKLEATINELV
- KM of TrxR1 for the Trx1 variant, insulin reduction-coupled assay [1]: 3.78 µM

B12: human Trx1 Q63R (natural protein)
chain: MVKQIESKTAFQEALDAAGDKLVVVDFSATWCGPCKMIKPFFHSLSEKYSNVIFLEVDVDDCRDVASECEVKCMPTFQFFKKGQKVGEFSGANKEKLEATINELV
- KM of TrxR1 for the Trx1 variant, insulin reduction-coupled assay [1]: 6.37 µM

B13: human Trx1 C32,35S (redox-inactive active site double mutant) (natural protein, UniProt P10599 1-105, looked up)
chain: MVKQIESKTAFQEALDAAGDKLVVVDFSATWSGPSKMIKPFFHSLSEKYSNVIFLEVDVDDCQDVASECEVKCMPTFQFFKKGQKVGEFSGANKEKLEATINELV
notes: human cytosolic thioredoxin 1, both active site cysteinyl residues exchanged for seryl residues; also called hTrx1C32,35S; double cysteinyl mutant
- Ki [3]: 5.3 µM
- Kd [2]: 9.8 µM
